# Assay results from paper PMC3523363 (Journal of medicinal chemistry, 2012).
# Legend:
# Spectroscopic studies = format: physicochemical; details: in DMF; for фF (fluorescence quantum yield): calculated using ZnPc (Фf = 0.17) as the standard; for Emission: excitation at 670 nm
# A431 cells = test: Phototoxicity, Cell Titer Blue assay; format: cell-based, human; details: 24 h
# A431 s.c. tumors = test: In vivo near-IR fluorescence imaging of s.c. tumor xenografts; design: species or system nude mice; details: 10 mg/kg iv, up to 96 h
# Vero cells = test: Phototoxicity, Cell Titer Blue assay; format: cell-based, cercopithecus aethiops; details: 24 h
# HT-29 cells = test: Phototoxicity, Cell Titer Blue assay; format: cell-based, human; details: 24 h
# HT-29 s.c. tumors = test: In vivo near-IR fluorescence imaging of s.c. tumor xenografts; design: species or system nude mice; details: HT-29 s.c. tumor, 10 mg/kg iv, up to 96 h
# HEp2 cells = test: Phototoxicity, Cell Titer Blue assay; format: cell-based, human; details: 24 h
# [1] = in DMF; cited from earlier work
# EGFR = EGFR (Homo sapiens, UniProt P00533); test: Surface plasmon resonance; format: binding; details: EGFR immobilized on CM5 chip, 25 °C
compound,measurement,setting,value
CC[C@H](C)[C@H](NC(=O)[C@@H](NC(=O)[C@H](CC(N)=O)NC(=O)[C@H](CCC(N)=O)NC(=O)[C@@H]1CCCN1C(=O)[C@@H](NC(=O)[C@H](Cc1ccc(O)cc1)NC(=O)CNC(=O)[C@H](Cc1ccc(O)cc1)NC(=O)[C@H](Cc1c[nH]c2ccccc12)NC(=O)[C@H](Cc1c[nH]cn1)NC(=O)[C@H](Cc1ccc(O)cc1)NC(=O)CNC(=O)COCC(=O)Nc1ccc(Oc2ccc3c4nc5nc(nc6[nH]c(nc7nc(nc([nH]4)c3c2)-c2cc(C(C)(C)C)ccc2-7)c2ccc(C(C)(C)C)cc62)-c2ccc(C(C)(C)C)cc2-5)cc1)[C@@H](C)O)C(C)C)C(N)=O [Pc 4b],Stokes' Shift,Spectroscopic studies,4 nm
same,ε,Spectroscopic studies,4.85 M⁻¹ cm⁻¹
same,Absorption,Spectroscopic studies; Q band,677 nm
same,фF (fluorescence quantum yield),Spectroscopic studies,0.10
same,Emission,Spectroscopic studies,681 nm
CC(C)C[C@H](NC(=O)CCOCCOCCOCCNC(=O)COCC(=O)Nc1ccc(Oc2ccc3c4nc5nc(nc6[nH]c(nc7nc(nc([nH]4)c3c2)-c2cc(C(C)(C)C)ccc2-7)c2ccc(C(C)(C)C)cc62)-c2ccc(C(C)(C)C)cc2-5)cc1)C(=O)N[C@@H](C)C(=O)N[C@@H](CCCNC(=N)N)C(=O)N[C@@H](CC(C)C)C(=O)N[C@@H](CC(C)C)C(=O)N[C@H](C(N)=O)[C@@H](C)O [Pc 5b],ε,Spectroscopic studies,5.27 M⁻¹ cm⁻¹
same,фF (fluorescence quantum yield),Spectroscopic studies,0.11
same,Emission,Spectroscopic studies,682 nm
same,IC50,A431 cells,> 100 µM
same,course of tumor fluorescence signal,A431 s.c. tumors,continued to increase to 96 h
same,IC50,Vero cells,> 100 µM
same,IC50,HT-29 cells,> 100 µM
same,course of tumor fluorescence signal,HT-29 s.c. tumors,declined from 24 to 96 h
same,IC50,HEp2 cells,> 100 µM
[Zn+2].c1ccc2c(c1)-c1nc-2nc2[n-]c(nc3nc([n-]c4nc(n1)-c1ccccc1-4)-c1ccccc1-3)c1ccccc21 [ZnPc],Фf (fluorescence quantum yield) of the reference,[1],0.17
GYHWYGYTPQNVI [EGFR-L2],relative binding affinity to EGFR (SPR),EGFR,higher affinity for EGFR than EGFR-L1
